The source of these data is article PMC2871789.

Common to all, as to test: EMSA
The target of data set [1] is T1, RelB (Mycobacterium tuberculosis H37Rv) (UniProt O50462).
T1 sequence: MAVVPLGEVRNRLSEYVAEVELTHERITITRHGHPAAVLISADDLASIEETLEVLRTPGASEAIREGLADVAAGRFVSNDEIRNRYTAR

Data set [2] addresses T2, RelB;RelE (Mycobacterium tuberculosis H37Rv;Mycobacterium tuberculosis H37Rv) (UniProt O50462+O50461).
T2 sequence 1: T1 sequence
T2 sequence 2: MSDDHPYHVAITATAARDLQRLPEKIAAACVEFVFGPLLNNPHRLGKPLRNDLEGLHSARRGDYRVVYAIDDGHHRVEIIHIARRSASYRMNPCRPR

The target of data set [3] is T3, RelB;RelG (Mycobacterium tuberculosis H37Rv;Mycobacterium tuberculosis H37Rv) (UniProt O50462+O33348).
T3 sequence 1: T1 sequence
T3 sequence 2: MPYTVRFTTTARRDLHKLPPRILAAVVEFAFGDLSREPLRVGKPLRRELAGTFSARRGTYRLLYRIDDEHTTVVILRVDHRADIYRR

Data set [4] deals with RelB;RelK (Mycobacterium tuberculosis H37Rv;Mycobacterium tuberculosis H37Rv) (UniProt O50462+P9WF09).
Data set [5] has as its target T4, RelE (Mycobacterium tuberculosis H37Rv) (UniProt O50461).
T4 sequence: T2 sequence 2

For data set [6], the target named is RelK (Mycobacterium tuberculosis H37Rv) (UniProt P9WF09).
In data set [7] the target is T5, RelF;RelE (Mycobacterium tuberculosis H37Rv;Mycobacterium tuberculosis H37Rv) (UniProt O33347+O50461).
T5 sequence 1: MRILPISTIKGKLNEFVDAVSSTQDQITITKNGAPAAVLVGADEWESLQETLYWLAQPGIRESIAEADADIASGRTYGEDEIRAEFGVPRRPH
T5 sequence 2: T2 sequence 2

The target of data set [8] is T6, RelF;RelG (Mycobacterium tuberculosis H37Rv;Mycobacterium tuberculosis H37Rv) (UniProt O33347+O33348).
T6 sequence 1: T5 sequence 1
T6 sequence 2: T3 sequence 2

RelB;RelK (Mycobacterium tuberculosis H37Rv;Mycobacterium tuberculosis H37Rv), sequence (P9WF09 whole entry, one chain of several): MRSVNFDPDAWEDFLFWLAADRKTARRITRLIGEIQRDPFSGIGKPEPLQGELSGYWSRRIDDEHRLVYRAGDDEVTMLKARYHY
RelK (Mycobacterium tuberculosis H37Rv), sequence (P9WF09 whole entry): as the sequence (P9WF09 whole entry, one chain of several) above

As for “ACCGTCTAGATGACAAGTTGGCCGGGATCAAGCGAATCTCGCGCCGGGCGATGTCAGCCCCGTCGTCAGGCTCGTCGAAGGTGCACGCCGTCGAACAGCAGGAGATCCTCGACGAGGCGTTCGGCTGAGTTCGCTCAGCCGAACGCTCGAGGAGACATCAAACAGCGACGAGGCGTTCGGCTCGGTAAGCCGATGCTCGGCGTACAGGGTTTAGCCATACTTTTAGCTACAATCGCGGTTATGGCTGTTGTCCCACTGGGTATA (double strand) [1247p]”, the binding entry is reported as “no binding” in data set [1]; “binds” in data set [2]; “binds” in data set [3]; “binds” in data set [4]; “no binding” in data set [5]; “no binding” in data set [6].
“ATCTTCTAGAACACACCGAGACCGAACCGTTACGCCGAGACTAGGTCGCGAATGGAACACCACCGCGAAAATCGTGGCCAGAAATCGCAACCACGTTACGCTCGCGACCGCTCAATCGAGCAAGGCGCCGACCGCAAGCACCAGCAAACCTGAGACGCCGCGCACAAAGTGCGAAACCACTGGAAGGTGAGCCCTAATTTAGGGCTGAGCAGGACCTGTATAACGGCCTAGTATGGCGGTATGCGGATACTGCCGATTTCTATA (double strand) [2865p]”: the binding entry in data set [7] and in data set [8] was “binds” throughout.
For “GGCGTTCGGCTCGGTAAGCCGATGCTCGGCGTACAGGGTTTAGCCATACTTTTAGCTACAATCGCGGTTATGGCTGTTGTCCCACTGGGTATA (double strand) [1247p3]”, in data set [2], the binding result was “binds”.
With “TCCGAACGCCTCGTCGCTGTTTGATGTCTCCTCGAGCGTTCGGCTGAGCGAACTCAGCCGAACGCCTCGTCGAGGATCTCCTGCTGTTCGACGGCGTGCACCTTCGACGAGCCTGACGACGGGGCTGACATCGCCCGGCGCGAGATTCGCTTGATCCCGGCCAACTTGTCATCTAGACGGT (double strand) [1247p5]”, the binding result in data set [2] was “no binding”.
